Laboratory results taken from article PMC7046716, “Oligomerization and characteristics of phosphoenolpyruvate carboxylase in Synechococcus PCC 7002” (Scientific Reports, 2020).
Values joined by “and” are separate entries in the source; they are usually repeats but may differ in a detail not shown here. Equal entries are not always repeated. Values belong to the compound of their own block, whether it stands above or below them.

Assays:
[1] = tested on: T1, PEPc PCC 7002 (Strep-column purified, mixed oligomer population); assay: malate dehydrogenase-coupled NADH assay, […] nm, Hanes-Woolf plot; assay type: biochemical, Picosynechococcus sp. PCC 7002; settings: pH 7.5, 35 °C, mixed dimer/tetramer
T1 construct: gene ppc; N-terminal Strep-tag kept, E. coli BL21, pETBB; dimer/tetramer mixture purified with Mg2+

[2] = tested on: T2, T_PEPc PCC 7002 (tetramer fraction of PEPc from Synechococcus PCC 7002); assay: as above; assay type: biochemical, Picosynechococcus sp. PCC 7002; settings: pH 8.0, 35 °C, SEC tetramer fraction
T2 construct: gene ppc; N-terminal Strep-tag kept, E. coli BL21, pETBB

[3] = target: Phosphoenolpyruvate carboxylase (PEPc) from Synechococcus PCC 7002 (Synechococcus PCC 7002); assay: SEC; HiLoad 16/60 Superdex 200, 4 °C, TBS pH 8.0 with 10 mM MgCl2 (Mg_10); 500 µg protein at 0.87 mg/ml; dimer and tetramer peaks
[4] = target: Phosphoenolpyruvate carboxylase (PEPc) from Synechococcus PCC 7002 (Synechococcus PCC 7002); assay: SEC-SAXS; Shodex KW-403 4.6 ml column, room temperature, 50 µl protein at 6.5 or 0.87 mg/ml in TBS pH 8.0 or TBS with 25 mM MgCl2; beamline B21, Diamond Light Source; three peaks analysed separately
[5] = target: Phosphoenolpyruvate carboxylase (PEPc) from Synechococcus PCC 7002 (Synechococcus PCC 7002); assay: SEC; HiLoad 16/60 Superdex 200, 4 °C, TBS pH 8.0 with 10 mM MgCl2, 5 mM NaHCO3 and 5 mM PEP (in vitro reaction); 500 µg protein at 0.87 mg/ml; dimer and tetramer peaks
[6] = target: Phosphoenolpyruvate carboxylase (PEPc) from Synechococcus PCC 7002 (Synechococcus PCC 7002); assay: SEC; HiLoad 16/60 Superdex 200, 4 °C, TBS pH 8.0 with 25 mM MgCl2 (Mg_25); 500 µg protein at 0.87 mg/ml; dimer and tetramer peaks
[7] = target: Phosphoenolpyruvate carboxylase (PEPc) from Synechococcus PCC 7002 (Synechococcus PCC 7002); assay: SEC; HiLoad 16/60 Superdex 200, 4 °C, TBS pH 8.0 with 5 mM NaHCO3; 500 µg protein at 0.87 mg/ml; dimer and tetramer peaks
[8] = target: Phosphoenolpyruvate carboxylase (PEPc) from Synechococcus PCC 7002 (Synechococcus PCC 7002); assay: SEC; HiLoad 16/60 Superdex 200, 4 °C, TBS pH 8.0 with 10 mM MgCl2 and 5 mM NaHCO3; 500 µg protein at 0.87 mg/ml; dimer and tetramer peaks
[9] = target: Phosphoenolpyruvate carboxylase (PEPc) from Synechococcus PCC 7002 (Synechococcus PCC 7002); assay: SEC; HiLoad 16/60 Superdex 200, 4 °C, TBS pH 8.0 with 5 mM NaHCO3 and 5 mM PEP; 500 µg protein at 0.87 mg/ml; dimer and tetramer peaks
[10] = target: Phosphoenolpyruvate carboxylase (PEPc) from Synechococcus PCC 7002 (Synechococcus PCC 7002); assay: SEC; HiLoad 16/60 Superdex 200, 4 °C, TBS pH 8.0 with 5 mM PEP; 500 µg protein at 0.87 mg/ml; dimer and tetramer peaks
[11] = target: Phosphoenolpyruvate carboxylase (PEPc) from Synechococcus PCC 7002 (Synechococcus PCC 7002); assay: SEC; HiLoad 16/60 Superdex 200, 4 °C, TBS pH 8.0 with 10 mM MgCl2 and 5 mM PEP; 500 µg protein at 0.87 mg/ml; dimer and tetramer peaks
[12] = target: Phosphoenolpyruvate carboxylase (PEPc) from Synechococcus PCC 7002 (Synechococcus PCC 7002); assay: SEC; HiLoad 16/60 Superdex 200, 4 °C, TBS (100 mM Tris-HCl, 150 mM NaCl) pH 8.0, no addition; 500 µg protein at 0.87 mg/ml, incubated 30 min at room temperature in the same buffer; dimer and tetramer peaks
[13] = 10 mM MgCl2, co-substrate PEP (5 mM in the standard assay)
[14] = 10 mM MgCl2, co-substrate NaHCO3 (5 mM in the standard assay)

Km [1, 13]: 970 µM
Km [2, 13]: 240 µM
Compound: O=C(O)O [HCO3^−]

Km [1, 14]: 1060 µM
Km [2, 14]: 770 µM
Compound: C=C(OP(=O)(O)O)C(=O)O [PEP]

ratio tetramer:dimer (peak values) (tetramer:dimer) [3]: 0
stoichiometry N [3]: 2
stoichiometry N [4]: 4 and 2
stoichiometry N [5]: 4 and 2
ratio tetramer:dimer (peak values) (tetramer:dimer) [6]: 1.4
stoichiometry N [6]: 4 and 2
ratio tetramer:dimer (peak values) (tetramer:dimer) [7]: 0
stoichiometry N [7]: 2
ratio tetramer:dimer (peak values) (tetramer:dimer) [8]: 0.8
stoichiometry N [8]: 4 and 2
ratio tetramer:dimer (peak values) (tetramer:dimer) [9]: 0.8
stoichiometry N [9]: 4 and 2
ratio tetramer:dimer (peak values) (tetramer:dimer) [10]: 1.1
stoichiometry N [10]: 4 and 2
ratio tetramer:dimer (peak values) (tetramer:dimer) [11]: 1.3
stoichiometry N [11]: 4 and 2
ratio tetramer:dimer (peak values) (tetramer:dimer) [12]: 0
stoichiometry N [12]: 2
Compound: Phosphoenolpyruvate carboxylase (PEPc) from Synechococcus PCC 7002 (enzyme)
